Results as given in patent US20250002998A1.

What was measured:
[1] = biological target: feline FAP in formalin fixed, paraffin embedded feline tissue sections (feline); assay: immunohistochemistry on a formalin fixed, paraffin embedded kidney section of cat #20-06613 with a higher level of fibrosis (fibrosis score 3)
[2] = biological target: feline FAP in formalin fixed, paraffin embedded feline tissue sections (feline); assay: immunohistochemistry on a formalin fixed, paraffin embedded kidney section of cat #20-10270 without fibrosis (fibrosis score 0); the score tells that no FAP was detected in this tissue, not that the antibody fails to bind FAP
[3] = biological target: feline FAP in formalin fixed, paraffin embedded feline tissue sections (feline); assay: immunohistochemistry on a formalin fixed, paraffin embedded kidney section of cat #20-01692 with a low level of fibrosis (fibrosis score 1)
[4] = biological target: feline FAP in formalin fixed, paraffin embedded feline tissue sections (feline); assay: immunohistochemistry on a formalin fixed, paraffin embedded kidney section of cat #20-00774 with a higher level of fibrosis (fibrosis score 3)

Work on “cross-reactive anti-FAP monoclonal antibody ab207178 from abcam” yielded an FAP score (0-3) [1] of 2, an FAP score (0-3) [2] of 0 and an FAP score (0-3) [3] of 1. The FAP score (0-3) [4] was 2.
